In patent publication US20160108091A1 (Novartis, published 2016):
Bridges are numbered along the chain shown (N, C = ends). [ ]: non-standard residue; d: D form. The star is where a group is joined. pGlu = O=C1CC[C@@H](C(=O)O)N1; NHPhenethyl = c1ccc(CCN*)cc1; d(hCys) = N[C@H](CCS)C(=O)O; dNle = CCCC[C@@H](N)C(=O)O; hCys = N[C@@H](CCS)C(=O)O; Nle = CCCC[C@H](N)C(=O)O

T1: human APJ receptor (hAPJ) (human, UniProt P35414 1-380)
T1 sequence (looked up): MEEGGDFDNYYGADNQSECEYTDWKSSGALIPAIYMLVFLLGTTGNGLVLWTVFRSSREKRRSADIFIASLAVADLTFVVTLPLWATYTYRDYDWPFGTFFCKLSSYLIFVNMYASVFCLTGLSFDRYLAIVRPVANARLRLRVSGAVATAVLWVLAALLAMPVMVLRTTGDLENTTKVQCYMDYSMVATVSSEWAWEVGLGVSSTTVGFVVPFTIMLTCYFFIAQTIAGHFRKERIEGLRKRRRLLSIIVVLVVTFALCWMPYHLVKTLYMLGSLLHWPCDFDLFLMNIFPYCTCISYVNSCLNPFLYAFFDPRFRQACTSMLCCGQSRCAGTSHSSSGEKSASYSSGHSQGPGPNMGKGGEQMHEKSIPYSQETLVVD

B1: Ac-C*-R-P-R-L-S-C*-K-G-P-Nle-P-F-OH (peptide)
peptide: Ac-CRPRLSCKGP[Nle]PF-OH
modifications: disulfide 1-7
SMILES: CCCC[C@H](NC(=O)[C@@H]1CCCN1C(=O)CNC(=O)[C@H](CCCCN)NC(=O)[C@@H]1CSSC[C@H](NC(C)=O)C(=O)N[C@@H](CCCNC(=N)N)C(=O)N2CCC[C@H]2C(=O)N[C@@H](CCCNC(=N)N)C(=O)N[C@@H](CC(C)C)C(=O)N[C@@H](CO)C(=O)N1)C(=O)N1CCC[C@H]1C(=O)N[C@@H](Cc1ccccc1)C(=O)O
B2: Ac-C*-R-P-R-L-S-C*-K-G-P-Nle-P-f-OH (peptide)
peptide: Ac-CRPRLSCKGP[Nle]P[dF]-OH
modifications: disulfide 1-7
SMILES: CCCC[C@H](NC(=O)[C@@H]1CCCN1C(=O)CNC(=O)[C@H](CCCCN)NC(=O)[C@@H]1CSSC[C@H](NC(C)=O)C(=O)N[C@@H](CCCNC(=N)N)C(=O)N2CCC[C@H]2C(=O)N[C@@H](CCCNC(=N)N)C(=O)N[C@@H](CC(C)C)C(=O)N[C@@H](CO)C(=O)N1)C(=O)N1CCC[C@H]1C(=O)N[C@H](Cc1ccccc1)C(=O)O
B3: Ac-C*-R-P-R-L-S-C*-K-G-P-Nle-NH(Phenethyl) (peptide)
peptide: Ac-CRPRLSCKGP[Nle]-NHPhenethyl
modifications: disulfide 1-7
SMILES: CCCC[C@H](NC(=O)[C@@H]1CCCN1C(=O)CNC(=O)[C@H](CCCCN)NC(=O)[C@@H]1CSSC[C@H](NC(C)=O)C(=O)N[C@@H](CCCNC(=N)N)C(=O)N2CCC[C@H]2C(=O)N[C@@H](CCCNC(=N)N)C(=O)N[C@@H](CC(C)C)C(=O)N[C@@H](CO)C(=O)N1)C(=O)NCCc1ccccc1
B4: Ac-c*-R-P-R-L-S-C*-K-G-P-Nle-P-F-OH (peptide)
peptide: Ac-[dC]RPRLSCKGP[Nle]PF-OH
modifications: disulfide 1-7
SMILES: CCCC[C@H](NC(=O)[C@@H]1CCCN1C(=O)CNC(=O)[C@H](CCCCN)NC(=O)[C@@H]1CSSC[C@@H](NC(C)=O)C(=O)N[C@@H](CCCNC(=N)N)C(=O)N2CCC[C@H]2C(=O)N[C@@H](CCCNC(=N)N)C(=O)N[C@@H](CC(C)C)C(=O)N[C@@H](CO)C(=O)N1)C(=O)N1CCC[C@H]1C(=O)N[C@@H](Cc1ccccc1)C(=O)O
B5: Ac-c*-R-P-R-L-S-hC*-K-G-P-Nle-P-F-OH (peptide)
peptide: Ac-[dC]RPRLS[hCys]KGP[Nle]PF-OH
modifications: disulfide 1-7
SMILES: CCCC[C@H](NC(=O)[C@@H]1CCCN1C(=O)CNC(=O)[C@H](CCCCN)NC(=O)[C@@H]1CCSSC[C@@H](NC(C)=O)C(=O)N[C@@H](CCCNC(=N)N)C(=O)N2CCC[C@H]2C(=O)N[C@@H](CCCNC(=N)N)C(=O)N[C@@H](CC(C)C)C(=O)N[C@@H](CO)C(=O)N1)C(=O)N1CCC[C@H]1C(=O)N[C@@H](Cc1ccccc1)C(=O)O
B6: Ac-c*-R-P-R-L-S-c*-K-G-P-Nle-P-F-OH (peptide)
peptide: Ac-[dC]RPRLS[dC]KGP[Nle]PF-OH
modifications: disulfide 1-7
SMILES: CCCC[C@H](NC(=O)[C@@H]1CCCN1C(=O)CNC(=O)[C@H](CCCCN)NC(=O)[C@H]1CSSC[C@@H](NC(C)=O)C(=O)N[C@@H](CCCNC(=N)N)C(=O)N2CCC[C@H]2C(=O)N[C@@H](CCCNC(=N)N)C(=O)N[C@@H](CC(C)C)C(=O)N[C@@H](CO)C(=O)N1)C(=O)N1CCC[C@H]1C(=O)N[C@@H](Cc1ccccc1)C(=O)O
B7: Ac-C*-R-P-R-L-S-c*-K-G-P-Nle-P-F-OH (peptide)
peptide: Ac-CRPRLS[dC]KGP[Nle]PF-OH
modifications: disulfide 1-7
SMILES: CCCC[C@H](NC(=O)[C@@H]1CCCN1C(=O)CNC(=O)[C@H](CCCCN)NC(=O)[C@H]1CSSC[C@H](NC(C)=O)C(=O)N[C@@H](CCCNC(=N)N)C(=O)N2CCC[C@H]2C(=O)N[C@@H](CCCNC(=N)N)C(=O)N[C@@H](CC(C)C)C(=O)N[C@@H](CO)C(=O)N1)C(=O)N1CCC[C@H]1C(=O)N[C@@H](Cc1ccccc1)C(=O)O
B8: Ac-(D-hC)*-R-P-R-L-S-hC*-K-G-P-Nle-P-F-OH (peptide)
peptide: Ac-[d(hCys)]RPRLS[hCys]KGP[Nle]PF-OH
modifications: disulfide 1-7
SMILES: CCCC[C@H](NC(=O)[C@@H]1CCCN1C(=O)CNC(=O)[C@H](CCCCN)NC(=O)[C@@H]1CCSSCC[C@@H](NC(C)=O)C(=O)N[C@@H](CCCNC(=N)N)C(=O)N2CCC[C@H]2C(=O)N[C@@H](CCCNC(=N)N)C(=O)N[C@@H](CC(C)C)C(=O)N[C@@H](CO)C(=O)N1)C(=O)N1CCC[C@H]1C(=O)N[C@@H](Cc1ccccc1)C(=O)O
B9: Ac-(D-hC)*-R-P-R-L-S-(D-hC)*-K-G-P-Nle-P-F-OH (peptide)
peptide: Ac-[d(hCys)]RPRLS[d(hCys)]KGP[Nle]PF-OH
modifications: disulfide 1-7
SMILES: CCCC[C@H](NC(=O)[C@@H]1CCCN1C(=O)CNC(=O)[C@H](CCCCN)NC(=O)[C@H]1CCSSCC[C@@H](NC(C)=O)C(=O)N[C@@H](CCCNC(=N)N)C(=O)N2CCC[C@H]2C(=O)N[C@@H](CCCNC(=N)N)C(=O)N[C@@H](CC(C)C)C(=O)N[C@@H](CO)C(=O)N1)C(=O)N1CCC[C@H]1C(=O)N[C@@H](Cc1ccccc1)C(=O)O
B10: Ac-(D-hC)*-R-P-R-L-S-(hC)*-K-G-P-f-a-f-OH (peptide)
peptide: Ac-[d(hCys)]RPRLS[hCys]KGP[dF][dA][dF]-OH
modifications: disulfide 1-7
SMILES: CC(=O)N[C@@H]1CCSSCC[C@@H](C(=O)N[C@@H](CCCCN)C(=O)NCC(=O)N2CCC[C@H]2C(=O)N[C@H](Cc2ccccc2)C(=O)N[C@H](C)C(=O)N[C@H](Cc2ccccc2)C(=O)O)NC(=O)[C@H](CO)NC(=O)[C@H](CC(C)C)NC(=O)[C@H](CCCNC(=N)N)NC(=O)[C@@H]2CCCN2C(=O)[C@H](CCCNC(=N)N)NC1=O
B11: Ac-c-R-P-R-L-S-(hC)-K-G-P-(D-Nle)-a-f-OH (peptide)
peptide: Ac-[dC]RPRLS[hCys]KGP[dNle][dA][dF]-OH
modifications: not fully specified; printed as Ac-c-R-P-R-L-S-(hC)-K-G-P-(D-Nle)-a-f-OH; cysteine pairing not given here
B12: pE-R-C*-R-L-S-C*-K-G-P-Nle-P-F-OH (peptide)
peptide: [pGlu]RCRLSCKGP[Nle]PF-OH
modifications: disulfide 3-7
SMILES: CCCC[C@H](NC(=O)[C@@H]1CCCN1C(=O)CNC(=O)[C@H](CCCCN)NC(=O)[C@@H]1CSSC[C@H](NC(=O)[C@H](CCCNC(=N)N)NC(=O)[C@@H]2CCC(=O)N2)C(=O)N[C@@H](CCCNC(=N)N)C(=O)N[C@@H](CC(C)C)C(=O)N[C@@H](CO)C(=O)N1)C(=O)N1CCC[C@H]1C(=O)N[C@@H](Cc1ccccc1)C(=O)O
B13: pE-R-C*-R-L-S-C*-K-G-P-(D-Nle)-a-f-OH (peptide)
peptide: [pGlu]RCRLSCKGP[dNle][dA][dF]-OH
modifications: disulfide 3-7
SMILES: CCCC[C@@H](NC(=O)[C@@H]1CCCN1C(=O)CNC(=O)[C@H](CCCCN)NC(=O)[C@@H]1CSSC[C@H](NC(=O)[C@H](CCCNC(=N)N)NC(=O)[C@@H]2CCC(=O)N2)C(=O)N[C@@H](CCCNC(=N)N)C(=O)N[C@@H](CC(C)C)C(=O)N[C@@H](CO)C(=O)N1)C(=O)N[C@H](C)C(=O)N[C@H](Cc1ccccc1)C(=O)O

The binders below were run against T1, human APJ receptor (hAPJ) (assay: cell-based or functional assay).

Row | Binder | hAPJ Ca^2+ Flux EC50
1 | B1 | 9.4 nM
2 | B2 | 46.9 nM
3 | B3 | 32.2 nM
4 | B4 | 21.4 nM
5 | B5 | 12.2 nM
6 | B6 | 48.7 nM
7 | B7 | 194 nM
8 | B8 | 14.1 nM
9 | B9 | 410 nM
10 | B10 | 174 nM
11 | B11 | 79.3 nM
12 | Ac-CRPRLSCKGP[Nle]P-NHPhenethyl (disulfide 1-7) [Ac-C*-R-P-R-L-S-C*-K-G-P-Nle-P-NH(Phenethyl)] | 3.2 nM
13 | B12 | 1 nM
14 | B13 | 2.9 nM
